In patent US20030199671A1, “Binding molecules for Fc-region polypeptides” (priority 2001, published 2003):
Where two headings read alike, the source gives them in different places. Each block holds one substance with its values, some of them ahead of it. code X = not defined here; code Z = not defined here

Assays:
[1] = target: IgG4 (Homo sapiens, UniProt P01861); assay type: binding; design: all human subtypes derived from myeloma patients; purchased Calbiochem 400126; host or cells: myeloma patients; conditions: for Batch Binding (% Capture of Total Load) hIgG4: Table 18, average ligand density 1.9 μmole/ml
Method: (§1) In addition, the following targets, all unfractionated IgGs, were also evaluated with selected immobilized peptides for species specificity characterization in a similar format: human IgG, goat IgG, bovine IgG, and mouse IgG (Sigma, product nos. I4506, I5256, I5506, and I15381, respectively). In addition, 10 μl aliquots of hydrolyzed NHS-activated Sepharose 4 Fast Flow (Amersham Pharmacia Biotech, product no. 17-0906-01) and immobilized recombinant Protein A (RepliGen Corp., product no. IPA-400) were also assayed as negative and positive controls. IgG targets were diluted into 10 mM phosphate buffer containing 150 mM NaCl and 0.01% Tween 20, pH 7.2 (PBST) or 50 mM Tris buffer containing, 150 mM NaCl and 0.01% Tween-20, pH 7.5 (TBST). Batch (static) binding and elution studies were conducted in a 96-well assay filterplate (Millipore MultiScreen-HV, with 0.45 μm Durapore membrane, product no. MAHVN4510). The target was allowed to incubate with the resin for 1-1.5 hours with shaking at room temperature. Unbound target was collected by centrifugation of samples from the assay plate directly into a low-UV absorbing 96-well collection plate (Costar, product no. 3635 or Greiner, product no. 655801). The unbound target was then quantitated by reading the absorbance at 280 nm (normalized to 1 cm pathlength, 1.4 mg/ml A280 extinction coefficient) of the collection plate on a microplate spectrophotometer (Molecular Devices Corp., SPECTRAmax PLUS) against a buffer blank.
(§2) The percentage bound target was determined by subtracting the mass determined as unbound from the corresponding condition's control values (control non-filtered added directly to the collection plate and/or the negative control). The assay plate was washed (3×) with 200 μl of binding buffer by vacuum filtration followed by addition of 100 μl of various elution conditions (e.g.: 0.1 M sodium bicarbonate buffer, pH 8.5 and/or 0.1 M sodium citrate buffer, pH 4.0). After a 30-60 minute incubation with shaking at room temperature, the eluted target was collected by centrifugation of the assay plate into another collection plate and quantitated in a similar manner. Percent elution of total load was then determined to characterize elution recovery efficiency under various conditions. The assay plate was then washed (3×) with 200 μl of binding buffer by vacuum filtration followed by addition of a resin cleaning condition (e.g., 0.1M CAPS buffer (3-[Cyclohexylamino]-1-propane-sulfonic acid), pH 11.5, to regenerate the resin for re-use. Percentage mass balance determination was calculated to be 90-100% on average.

[2] = test system: human IgG; experiment: Static (filterplate) binding capacity; conditions: 25 mg human IgG applied per ml resin
Method: These media were used to determine the effect of ligand density on human IgG binding capacity in both static (filterplate) and dynamic (mini-column) modes with commercial immobilized recombinant Protein A (Repligen, IPA400) at a single density as control. Actual ligand densities obtained ranged from 0.17 to 3.2 μmole/ml media as confirmed by quantitative amino acid analysis.
After incubation of the samples, with shaking, at room temperature for one hour, the supernatant liquid from each well, containing unbound IgG, was collected by centrifugation into the cognate well of a collection plate. The assay plate was washed three times with PBST (200 μl/wash) and bound IgG was eluted from the media samples by incubation for 30-60 minutes at room temperature in 100 μl Elution Buffer (100 mM CAPS, pH 11.5). Eluates were collected by centrifugation for analysis. Protein concentrations were determined from A280 measurements and plotted as a function of mg human IgG bound per ml resin vs. mg human IgG applied per ml resin.
The amount of IgG captured (estimated from IgG recovered in the elution step) by the various media is dependent upon both the IgG concentration and the ligand density. […] Under these static conditions, where both ligand and target concentrations are close to KD values, equilibrium binding is established and total capacities cannot be accurately determined. However, over the IgG range of 0 to 25 mg IgG applied per ml resin (0 to 2.5 mg/ml target added to 10 μl of resin), capture of IgG is linear. Beyond this point, up to a level of 200 mg IgG applied per ml resin, saturation becomes more pronounced.

[3] = test system: human IgG; experiment: Dynamic (mini-column) binding capacity; conditions: Table 18; total dynamic capacity; average ligand density 1.9 μmole/ml
Method: These media were used to determine the effect of ligand density on human IgG binding capacity in both static (filterplate) and dynamic (mini-column) modes with commercial immobilized recombinant Protein A (Repligen, IPA400) at a single density as control.
The IgG solution was loaded onto the column at a flow rate of 0.2 ml/minute (170 cm/hr). […] At the end of the loading period, the column was washed with PBS until the absorbance at 280 nm of the column eluant returned to baseline. […] Neutralizing the pH of the eluted fractions was unnecessary since the total IgG eluted was determined by total protein absorbance at 280 nm.
To establish total media capacities, IgG was loaded onto the columns until the absorbances of the column load and flow through streams were identical (loading to full capacity). After washing the column to baseline, bound IgG was eluted and the total amount captured from this elution fraction determined. The total capacity of the media (mg IgG/ml media) as total IgG captured divided by the column bed volume was calculated.
Additionally, column capacities at 10% breakthrough were calculated from the online A280 measurements of column flowthrough streams. The A280 curves obtained for the column of interest and for an equivalent “blank” column containing hydrolyzed Sepharose FF 4 media were aligned. The difference in areas between these curves (for a retained and non-retained target) from the time of injection to the time at which the A280 value for the column of interest had risen to 10% of the maximum A280 absorbance (100%) obtained for the load solution at 100% IgG capture saturation (10% breakthrough) was graphically integrated. A standard curve was used to relate the integrated area to mg IgG bound and capacity calculated as total IgG bound divided by column bed volume.

[4] = target: IgG3 (Homo sapiens, UniProt P01860); assay type: binding; design: all human subtypes derived from myeloma patients; purchased Calbiochem 400124; host or cells: myeloma patients; conditions: for Batch Binding (% Capture of Total Load) hIgG3: Table 18, average ligand density 1.9 μmole/ml
Method: as §1, §2

[5] = target: T1, human IgG2 (Homo sapiens, UniProt P01859); assay type: binding; conditions: for Batch Binding (% Capture of Total Load) hIgG2: Table 18, average ligand density 1.9 μmole/ml
T1 construct: all human subtypes derived from myeloma patients; purchased Calbiochem 400122; host or cells: myeloma patients
Method: as §1, §2

[6] = target: T2, human IgG1 (Homo sapiens, UniProt P01857); assay type: binding; conditions: for Batch Binding (% Capture of Total Load) hIgG1: Table 18, average ligand density 1.9 μmole/ml
T2 construct: all human subtypes derived from myeloma patients; purchased Calbiochem 400120; host or cells: myeloma patients
Method: as §1, §2

[7] = test system: human IgG; assay type: binding; conditions: for Batch Binding (% Capture of Total Load) hIgG: Table 18, average ligand density 1.9 μmole/ml
Method: as §1, §2

[8] = test system: goat IgG; assay type: binding
Method: as §1, §2

[9] = test system: mouse IgG; assay type: binding
Method: as §1, §2

[10] = test system: bovine IgG; assay type: binding
Method: as §1, §2

[11] = Table 9, immobilized peptide, 5.0 mg/ml resin load
[12] = Table 14, average ligand density 1.8 μM/ml
[13] = Table 13, average ligand density 1.8 μM/ml

Chain of IgG3 (P01860 1-377 isoform P01860-1): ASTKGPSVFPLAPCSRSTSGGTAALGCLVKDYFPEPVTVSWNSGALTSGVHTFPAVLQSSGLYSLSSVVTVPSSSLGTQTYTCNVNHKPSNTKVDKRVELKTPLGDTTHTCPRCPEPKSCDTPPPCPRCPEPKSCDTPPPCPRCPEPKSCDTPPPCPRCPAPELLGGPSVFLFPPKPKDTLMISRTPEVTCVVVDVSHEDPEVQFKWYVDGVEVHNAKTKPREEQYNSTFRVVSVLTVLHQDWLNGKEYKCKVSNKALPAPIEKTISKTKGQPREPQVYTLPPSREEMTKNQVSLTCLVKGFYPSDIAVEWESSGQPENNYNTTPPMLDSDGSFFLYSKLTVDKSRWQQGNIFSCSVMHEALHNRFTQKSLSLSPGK
Chain of IgG4 (P01861 1-327 isoform P01861-1): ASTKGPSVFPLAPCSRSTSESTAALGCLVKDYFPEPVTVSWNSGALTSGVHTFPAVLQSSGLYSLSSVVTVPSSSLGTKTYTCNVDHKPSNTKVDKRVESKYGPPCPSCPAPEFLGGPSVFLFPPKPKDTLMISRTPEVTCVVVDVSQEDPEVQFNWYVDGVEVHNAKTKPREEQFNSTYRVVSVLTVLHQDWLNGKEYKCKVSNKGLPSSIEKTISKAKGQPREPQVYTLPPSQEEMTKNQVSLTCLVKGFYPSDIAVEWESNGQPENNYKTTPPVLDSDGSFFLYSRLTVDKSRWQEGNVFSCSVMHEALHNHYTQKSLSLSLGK
T2 sequence (P01857 1-330 isoform P01857-1): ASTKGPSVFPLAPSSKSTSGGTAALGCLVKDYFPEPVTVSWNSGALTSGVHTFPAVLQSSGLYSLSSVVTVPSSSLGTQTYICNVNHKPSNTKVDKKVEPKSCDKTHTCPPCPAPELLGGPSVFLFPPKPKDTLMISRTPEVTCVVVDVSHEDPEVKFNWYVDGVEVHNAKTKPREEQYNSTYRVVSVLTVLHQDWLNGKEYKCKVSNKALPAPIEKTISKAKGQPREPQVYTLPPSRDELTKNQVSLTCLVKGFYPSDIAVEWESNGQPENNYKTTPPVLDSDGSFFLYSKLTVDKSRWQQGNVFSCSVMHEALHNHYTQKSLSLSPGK
T1 sequence (P01859 1-326 isoform P01859-1): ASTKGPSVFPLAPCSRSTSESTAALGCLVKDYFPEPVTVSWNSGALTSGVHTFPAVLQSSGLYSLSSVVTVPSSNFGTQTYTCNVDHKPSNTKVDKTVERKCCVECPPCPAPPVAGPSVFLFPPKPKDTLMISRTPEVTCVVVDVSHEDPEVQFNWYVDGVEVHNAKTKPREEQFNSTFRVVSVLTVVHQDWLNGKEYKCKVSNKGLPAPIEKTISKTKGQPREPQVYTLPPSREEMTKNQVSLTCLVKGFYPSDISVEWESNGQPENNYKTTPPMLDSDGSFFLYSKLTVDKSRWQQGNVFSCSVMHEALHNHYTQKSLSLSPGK

- Batch Binding (% Capture of Total Load) hIgG4 [1]: 35%
- Decrease in apparent relative static capacity compared to DX249, DX877 and DX878 [2]: ~2 fold
- Dynamic Cap. [3]: 5 mg/mL
- Batch Binding (% Capture of Total Load) hIgG3 [4]: 7%
- Batch Binding (% Capture of Total Load) hIgG2 [5]: 54%
- Batch Binding (% Capture of Total Load) hIgG1 [6]: 65%
- Batch Binding (% Capture of Total Load) hIgG [7]: 49%
Substance: Ac-GDDHMCVYTTWGELIWCDNH-X-NH2 (Ac-GDDHMCVYTTWGELIWCDNH-{code X-NH2}; not fully specified (bridges); printed as Ac-GDDHMCVYTTWGELIWCDNH-X-NH2; cysteine pairing not given here; reading uncertain) [DX907]

- hIgG4 elution pH 3.0 (% of Total Load) ([1]; Table 13): 11%
- % IgG Capture - Batch Binding, Goat IgG [8, 12]: 4%
- hIgG1 elution pH 3.0 (% of Total Load) ([6]; Table 13): 27%
- % IgG Capture - Batch Binding, Human IgG [7, 12]: 49%
Substance: Ac-GDNPMCWRAHWWEDAYCINHEPGPEGGGK-NH2 (not fully specified (bridges); printed as Ac-GDNPMCWRAHWWEDAYCINHEPGPEGGGK-NH2; cysteine pairing not given here) [DX1072]

- hIgG4 elution pH 3.0 (% of Total Load) ([1]; Table 13): 5%
- % IgG Capture - Batch Binding, Goat IgG [8, 12]: 3%
- % IgG Capture - Batch Binding, Mouse IgG [9, 12]: 8%
- hIgG1 elution pH 3.0 (% of Total Load) ([6]; Table 13): 4%
- % IgG Capture - Batch Binding, Human IgG [7, 12]: 45%
Substance: Ac-GDNPMCWRASWWEDAYCINHEPGPEGGGK-NH2 (not fully specified (bridges); printed as Ac-GDNPMCWRASWWEDAYCINHEPGPEGGGK-NH2; cysteine pairing not given here) [DX1071]

The remaining lines, values behind:

Substance: Ac-AGPVDCKHHFWWCYWNGTPGPEGGGK-NH2 (not fully specified (bridges); printed as Ac-AGPVDCKHHFWWCYWNGTPGPEGGGK-NH2; cysteine pairing not given here) [DX251]
- % IgG Capture - Batch Binding, Human IgG4 [1, 11]: 1%
- % IgG Capture - Batch Binding, Human IgG3 [4, 11]: 5%
- % IgG Capture - Batch Binding, Human IgG2 [5, 11]: 14%
- % IgG Capture - Batch Binding, Goat IgG ([8]; Table 11, unfractionated IgG): 0%
- % IgG Capture - Batch Binding, Mouse IgG ([9]; Table 11, unfractionated IgG): 4%
- % IgG Capture - Batch Binding, Human IgG1 [6, 11]: 6%
- % IgG Capture - Batch Binding, Human IgG ([7]; Table 11, unfractionated IgG): 4%
- % IgG Capture - Batch Binding, Bovine IgG ([10]; Table 11, unfractionated IgG): 0%

Substance: Ac-GDDHMCVYTTWGELIWCDNHEPGPEG-X-NH2 (Ac-GDDHMCVYTTWGELIWCDNHEPGPEG-{code X-NH2}; not fully specified (bridges); printed as Ac-GDDHMCVYTTWGELIWCDNHEPGPEG-X-NH2; cysteine pairing not given here; reading uncertain) [DX877]
- Static Cap. ([2]; Table 18, average ligand density 1.9 μmole/ml): 20 mg/mL
- Dynamic Cap. [3]: 8 mg/mL
- Batch Binding (% Capture of Total Load) hIgG [7]: 61%

Substance: Ac-GDDHMCVYTTWGELIWCDNH-X-Z-X-NH2 (Ac-GDDHMCVYTTWGELIWCDNH-{code X-code Z-code X-NH2}; not fully specified (bridges); printed as Ac-GDDHMCVYTTWGELIWCDNH-X-Z-X-NH2; cysteine pairing not given here; reading uncertain) [DX911]
- Batch Binding (% Capture of Total Load) hIgG4 [1]: 25%
- Decrease in apparent relative static capacity compared to DX249, DX877 and DX878 [2]: ~2 fold
- Batch Binding (% Capture of Total Load) hIgG3 [4]: 6%
- Batch Binding (% Capture of Total Load) hIgG2 [5]: 46%
- Batch Binding (% Capture of Total Load) hIgG1 [6]: 58%
- Batch Binding (% Capture of Total Load) hIgG [7]: 43%

Substance: Ac-GDNPMCWKKSWWEDAYCINHGTPGPEGGGK-NH2 (not fully specified (bridges); printed as Ac-GDNPMCWKKSWWEDAYCINHGTPGPEGGGK-NH2; cysteine pairing not given here) [DX596]
- hIgG4 elution pH 2.5 (% of Total Load) ([1]; Table 13): 44%
- hIgG4 elution pH 3.5 (% of Total Load) ([1]; Table 13): 61%
- hIgG4 elution pH 4.5 (% of Total Load) ([1]; Table 13): 17%
- hIgG4 elution pH 5.5 (% of Total Load) ([1]; Table 13): 2%
- hIgG4 elution pH 9.0 (% of Total Load) ([1]; Table 13): 55%
- hIgG4 elution pH 9.5 (% of Total Load) ([1]; Table 13): 67%
- hIgG4 Bound (% of Total Load) [1, 13]: 65%
- hIgG3 elution pH 2.5 (% of Total Load) ([4]; Table 13): 0%
- hIgG3 elution pH 3.5 (% of Total Load) ([4]; Table 13): 0%
- hIgG3 elution pH 4.5 (% of Total Load) ([4]; Table 13): 0%
- hIgG3 elution pH 5.5 (% of Total Load) ([4]; Table 13): 0%
- hIgG3 elution pH 9.0 (% of Total Load) ([4]; Table 13): 0%
- hIgG3 elution pH 9.5 (% of Total Load) ([4]; Table 13): 0%
- hIgG3 Bound (% of Total Load) [4, 13]: 0%
- hIgG2 elution pH 2.5 (% of Total Load) ([5]; Table 13): 71%
- hIgG2 elution pH 3.5 (% of Total Load) ([5]; Table 13): 92%
- hIgG2 elution pH 4.5 (% of Total Load) ([5]; Table 13): 44%
- hIgG2 elution pH 5.5 (% of Total Load) ([5]; Table 13): 3%
- hIgG2 elution pH 9.0 (% of Total Load) ([5]; Table 13): 58%
- hIgG2 elution pH 9.5 (% of Total Load) ([5]; Table 13): 64%
- hIgG2 Bound (% of Total Load) [5, 13]: 81%
- % IgG Capture - Batch Binding, Goat IgG [8, 12]: 8%
- % IgG Capture - Batch Binding, Mouse IgG [9, 12]: 5%
- hIgG1 elution pH 2.5 (% of Total Load) ([6]; Table 13): 66%
- hIgG1 elution pH 3.5 (% of Total Load) ([6]; Table 13): 78%
- hIgG1 elution pH 4.5 (% of Total Load) ([6]; Table 13): 61%
- hIgG1 elution pH 5.5 (% of Total Load) ([6]; Table 13): 3%
- hIgG1 elution pH 9.0 (% of Total Load) ([6]; Table 13): 62%
- hIgG1 elution pH 9.5 (% of Total Load) ([6]; Table 13): 58%
- hIgG1 Bound (% of Total Load) [6, 13]: 87%
- % IgG Capture - Batch Binding, Human IgG [7, 12]: 72%
- % IgG Capture - Batch Binding, Bovine IgG [10, 12]: 5%
